According to paper PMC11440607 (Journal of Medicinal Chemistry, 2024):

What was measured:
Assay type in all cases: physicochemical
[1] = Amyloid aggregation propensity by thioflavin-T (ThT) fluorescence
Text: (§1) The pH-sensitive, reversible amyloid aggregation of GLP-1 and related gastrointestinal hormones is an inherent and functionally critical property. They are stored as condensed amyloids at low pH before being released as monomeric, folded hormones at neutral pH. At the same time, the exact evolutionary origin[45] of Ex4 with its functional role as a salivary toxin in lizards remains unknown.[45],[46] The difference in secretion pathways is notable: GLP-1 is secreted into the bloodstream, while Ex4 is secreted into the alimentary canal. […] In terms of structure, the polyproline tail of the Ex4 Tc fold effectively shields the −^21LFIEWL^26− aggregation-prone region[40] (APR) of the facing α-helix, while the similar −^21EFIAWL^26− helical segment of GLP-1 remains unshielded. We therefore investigated the short- and long-term aggregation behavior of GLP-1, Ex4, and related Tc5b-modified variants using an amyloid-specific thioflavin-T fluorescence assay, CD spectroscopy, and atomic force microscopy (AFM) at 37 °C (Figure 5).
The exact peptide content percentage of the lyophilized peptides was determined by using a Nanodrop Lite UV–vis spectrophotometer at 280 nm. […] The exact concentration was determined by UV spectrometry using a Jasco V-660 spectrophotometer (Tokyo, Japan) at 412 nm with an extinction coefficient of 31.600 M^–1 cm^–1. […] A SpectraMax iD3 microplate reader (Molecular Devices, Sunnyvale, CA, USA) was used to control the experimental conditions (37 °C, orbital shaking at medium intensity) and to collect fluorescence data over 3 days. […] The emitted fluorescence was measured from the bottom of the microplate with medium photomultiplier tube sensitivity (PMT) settings and an integration time of 400 ms. […] The average fluorescence intensity of the peptide-free ThT sample was used as a background and subtracted from the average fluorescence intensity of the peptide-containing samples at each measurement point. The mean and standard deviation of ThT fluorescence intensities were plotted as a function of time using Origin software version 2022b and Excel software version 2020.

[2] = Atomic force microscopy of aggregation samples
Protocol: Ten μL aliquots were taken from the ThT and CD measurement samples at the end point of the experiments, after 3 days and 2 weeks of agitation, respectively. These aliquots were then spread on freshly cleaved mica surfaces and dried overnight in a vacuum desiccator. In some cases, the spread samples were washed with pH-adjusted water to remove any salts that might crystallize during the drying process and potentially complicate the AFM micrograph recording. The surface morphology was analyzed using a FlexAFM microscope system (Nanosurf AG, Liestal, Switzerland) operating in dynamic mode, controlled by Nanosurf control software C3000 version 3.10.4. Micrographs were taken using Tap150GD-G cantilevers (BudgetSensors Ltd., Sofia, Bulgaria) with a nominal tip radius of less than 10 nm. Prescreening was run before data collection to avoid significant height variations in the surface topology. Data collection was performed at different locations within each sample. Images were recorded with a maximum window size of 10 × 10 μm at a resolution of 512 pixels/line. Gwyddion 2.62 software was used to process the AFM data and generate the images.

[3] = Long-term aggregation monitored by CD spectroscopy; details: pH 7.4, 1 mg mL-1, 150 mM NaCl, 37 °C, 500 rpm, two weeks
Text: as §1, with “(APR) of the facing α-helix, while the similar −^21EFIAWL^26− helical segment of GLP-1 remains unshielded.” left out
Circular dichroism (CD) experiments were performed using JASCO J-810 and J-1500 spectropolarimeters. […] Melting curves were recorded in the temperature range of 5–85 °C in 5 °C increments. […] Exact concentrations were determined by using a Nanodrop Lite UV–vis spectrophotometer at 280 nm. To determine the folded fraction (F%), the temperature-dependent spectrum collection of 65 CD curves was analyzed using Convex Constraint Analysis Plus software.[59] […]

| Substance | amyloid formation / aggregation propensity ([1]; ThT, CD and AFM, 37 °C, acidic and neutral pH, 1 and 5 mg mL–1) | thioflavin-T response under acidic conditions ([1]; ThT fluorescence, pH 4.2–4.5, 1 and 5 mg mL–1, 37 °C, orbital shaking, 3 days, triplicate) | time to amyloid fibril formation under acidic conditions ([1]; acidic conditions, concentration-dependent, 37 °C) | fibril formation by AFM ([2]; 72 h agitated acidic ThT samples, 1 mg mL–1) | diameter of twisted amyloid fibrils ([2]; AFM, acidic conditions) | amyloid formation under neutral pH conditions [3] |
| --- | --- | --- | --- | --- | --- | --- |
| Exendin-4 [Ex4] | did not exhibit any evidence of amyloid formation | – | – | – | – | – |
| glucagon-like peptide-1 [GLP-1] | – | exceeded the limit of detection range | ≤ 1 days | reveal fibril formation | 5–10 nm | forms amyloid assemblies under neutral pH conditions, albeit in two weeks |
